Conditions in all cases: protein: recombinant; tags: N-terminal His6; label: 5' biotin; hairpin
One data set has as its target U1A Asp92Glu (UniProt P09012 1-101, D92E). In words: SPR; ka 4e7 M-1s-1; kd 9e-4 s-1; Biacore 2000 SPR; running buffer with 125 ug/ml yeast tRNA and 62.5 ug/ml acetylated BSA; buffer, salt, pH and temperature as previously described (not given in material). On the technique in general: SPR reads the build-up and loss of mass on a sensor chip optically.
Another data set addresses U1A90 (UniProt P09012 1-90). In words: SPR; ka 2.3e8 M-1s-1; kd 1.0 s-1; Biacore 2000 SPR; running buffer with 125 ug/ml yeast tRNA and 62.5 ug/ml acetylated BSA; buffer, salt, pH and temperature as previously described (not given in material).
In a further data set the target is U1A Ile94Pro (UniProt P09012 1-101, I94P). In words: SPR; ka 1.2e8 M-1s-1; kd 6e-2 s-1; Biacore 2000 SPR; running buffer with 125 ug/ml yeast tRNA and 62.5 ug/ml acetylated BSA; buffer, salt, pH and temperature as previously described (not given in material).
The next data set deals with U1A Asp92Phe (UniProt P09012 1-101, D92F). The experiment in a line: SPR; ka 6e7 M-1s-1; kd 1.0e-3 s-1; Biacore 2000 SPR; running buffer with 125 ug/ml yeast tRNA and 62.5 ug/ml acetylated BSA; buffer, salt, pH and temperature as previously described (not given in material).
The target of another data set is U1A95 (UniProt P09012 1-95). The experiment in a line: SPR; ka 2.3e7 M-1s-1; kd 1.8e-2 s-1; Biacore 2000 SPR; running buffer with 125 ug/ml yeast tRNA and 62.5 ug/ml acetylated BSA; buffer, salt, pH and temperature as previously described (not given in material).
A further data set has as its target U1A Asp92Ala (UniProt P09012 1-101, D92A). In words: SPR; ka 3.3e7 M-1s-1; kd 1.1e-3 s-1; Biacore 2000 SPR; running buffer with 125 ug/ml yeast tRNA and 62.5 ug/ml acetylated BSA; buffer, salt, pH and temperature as previously described (not given in material).
In another data set the target is U1A Thr11Ala (UniProt P09012 1-101, T11A). The experiment in a line: SPR; ka 7.1e7 M-1s-1; kd 1.5e-2 s-1; Biacore 2000 SPR; running buffer with 125 ug/ml yeast tRNA and 62.5 ug/ml acetylated BSA; buffer, salt, pH and temperature as previously described (not given in material).
U1A Thr11Ala, sequence (P09012 1-101 T11A): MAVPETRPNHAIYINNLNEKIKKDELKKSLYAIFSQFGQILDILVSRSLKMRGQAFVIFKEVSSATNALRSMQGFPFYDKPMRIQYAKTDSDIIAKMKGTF

U1A Ile94Pro, sequence (P09012 1-101 I94P): as the sequence (P09012 1-101 T11A) above, with A11T, I94P counted along it
U1A Asp92Phe, sequence (P09012 1-101 D92F): as the sequence (P09012 1-101 T11A) above, with A11T, D92F counted along it
U1A Asp92Ala, sequence (P09012 1-101 D92A): as the sequence (P09012 1-101 T11A) above, with A11T, D92A counted along it
U1A Asp92Glu, sequence (P09012 1-101 D92E): as the sequence (P09012 1-101 T11A) above, with A11T, D92E counted along it
U1A95, sequence (P09012 1-95): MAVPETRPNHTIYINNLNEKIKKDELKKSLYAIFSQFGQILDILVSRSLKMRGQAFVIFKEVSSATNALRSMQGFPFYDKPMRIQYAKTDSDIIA
U1A90, sequence (P09012 1-90): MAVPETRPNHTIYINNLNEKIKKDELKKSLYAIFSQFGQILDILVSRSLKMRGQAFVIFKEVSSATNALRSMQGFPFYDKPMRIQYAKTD

For orientation: Kd means the equilibrium constant for the complex coming apart. Consider AGCUUAUCCAUUGCACUCCGGAUGAGCU (structured_RNA) [U1hpII], for which the Kd turned out to be 20 pM with U1A Asp92Glu; 4500 pM with U1A90; 500 pM with U1A Ile94Pro; 20 pM in the data set with U1A Asp92Phe; 820 pM with U1A95; 41 pM with U1A Asp92Ala. Besides, in the data set with U1A Thr11Ala, the Kd was determined as 210 pM.

The record behind these values is publication PMC3737524, “The role of the C-terminal helix of U1A protein in the interaction with U1hpII RNA”.
